These results are taken from patent publication US20030215838A1.

Experiment [1] addresses human zcytor17 and OSMRbeta co-expressed on transfected cells (human). The experiment is described as follows: cell-based or functional assay.
Experiment [2] has as its target human zcytor17, OSMRbeta and WSX-1 co-expressed on transfected cells (human). The experiment in a line: cell-based or functional assay.
The target of experiment [3] is human zcytor17 and OSMRbeta co-expressed on transfected cells (human). The experiment is described as follows: flow cytometry; biotinylated zcytor17L at 3.33 µg/mL on BAF3 cells with zcytor17 + OSMRbeta, SA-PE.
The target of experiment [4] is human zcytor17 receptor, full length, on transfected cells (human). The experiment is described as follows: flow cytometry; biotinylated zcytor17L at 0.000001 µg/mL on BHK cells with zcytor17 alone, SA-PE. For orientation: Flow cytometry measures light scatter and fluorescence of single cells or particles in a stream.
Experiment [5] shares this target. The experiment is described as follows: flow cytometry; biotinylated zcytor17L at 0.001 µg/mL on BHK cells with zcytor17 alone, SA-PE.
In experiment [6] the target is human zcytor17 and OSMRbeta co-expressed on transfected cells (human). The experiment is described as follows: flow cytometry; biotinylated zcytor17L at 0.000001 µg/mL on BHK cells with zcytor17 + OSMRbeta, SA-PE.
Experiment [7] addresses human zcytor17 receptor, full length, on transfected cells (human). The experiment is described as follows: flow cytometry; biotinylated zcytor17L at 0.010 µg/mL on BHK cells with zcytor17 alone, SA-PE.
Experiment [8] has the same target. The experiment is described as follows: flow cytometry; biotinylated zcytor17L at 0.100 µg/mL on BHK cells with zcytor17 alone, SA-PE.
The target is the same in experiment [9]. The experiment is described as follows: flow cytometry; no ligand (0.0 ng/mL, background) on BAF3 cells with zcytor17 alone, SA-PE.
Experiment [10] concerns the target human OSMRbeta, full length, on transfected cells (human). The experiment is described as follows: flow cytometry; biotinylated zcytor17L at 1.11 µg/mL on BAF3 cells with OSMRbeta alone, SA-PE.
The target in experiment [11] is human zcytor17 and OSMRbeta co-expressed on transfected cells (human). The experiment in a line: flow cytometry; biotinylated zcytor17L at 0.04 µg/mL on BAF3 cells with zcytor17 + OSMRbeta, SA-PE.
For experiment [12] the target is unchanged. The experiment in a line: flow cytometry; biotinylated zcytor17L at 0.010 µg/mL on BHK cells with zcytor17 + OSMRbeta, SA-PE.
For experiment [13] the target is unchanged. The experiment is described as follows: flow cytometry; biotinylated zcytor17L at 0.0001 µg/mL on BHK cells with zcytor17 + OSMRbeta, SA-PE.
Experiment [14] deals with human OSMRbeta, full length, on transfected cells (human). The experiment is described as follows: flow cytometry; no ligand (0.0 µg/mL, background) on BHK cells with OSMRbeta alone, SA-PE.
Experiment [15] concerns the target human zcytor17 and OSMRbeta co-expressed on transfected cells (human). The experiment is described as follows: flow cytometry; biotinylated zcytor17L at 0.001 µg/mL on BHK cells with zcytor17 + OSMRbeta, SA-PE.
The target in experiment [16] is human OSMRbeta, full length, on transfected cells (human). The experiment is described as follows: flow cytometry; biotinylated zcytor17L at 3.33 µg/mL on BAF3 cells with OSMRbeta alone, SA-PE.
For experiment [17], the target named is human zcytor17 and OSMRbeta co-expressed on transfected cells (human). The experiment in a line: flow cytometry; biotinylated zcytor17L at 1.11 µg/mL on BAF3 cells with zcytor17 + OSMRbeta, SA-PE.
In experiment [18] the target is human zcytor17 receptor, full length, on transfected cells (human). The experiment is described as follows: flow cytometry; biotinylated zcytor17L at 0.00001 µg/mL on BHK cells with zcytor17 alone, SA-PE.
Experiment [19] has the same target. The experiment in a line: flow cytometry; biotinylated zcytor17L at 0.0001 µg/mL on BHK cells with zcytor17 alone, SA-PE.
For experiment [20], the target named is human OSMRbeta, full length, on transfected cells (human). The experiment in a line: flow cytometry; biotinylated zcytor17L at 0.04 µg/mL on BAF3 cells with OSMRbeta alone, SA-PE.
In experiment [21] the target is human zcytor17 and OSMRbeta co-expressed on transfected cells (human). The experiment is described as follows: flow cytometry; biotinylated zcytor17L at 10.0 µg/mL on BAF3 cells with zcytor17 + OSMRbeta, SA-PE.
For experiment [22] the target is unchanged. The experiment is described as follows: flow cytometry; biotinylated zcytor17L at 0.37 µg/mL on BAF3 cells with zcytor17 + OSMRbeta, SA-PE.
Experiment [23] has as its target human OSMRbeta, full length, on transfected cells (human). The experiment in a line: flow cytometry; no ligand (0.00 µg/mL, background) on BAF3 cells with OSMRbeta alone, SA-PE.
For experiment [24], the target named is human zcytor17 and OSMRbeta co-expressed on transfected cells (human). The experiment in a line: flow cytometry; biotinylated zcytor17L at 0.00001 µg/mL on BHK cells with zcytor17 + OSMRbeta, SA-PE.
In experiment [25] the target is human zcytor17 receptor, full length, on transfected cells (human). The experiment in a line: flow cytometry; biotinylated zcytor17L at 10.0 ng/mL on BAF3 cells with zcytor17 alone, SA-PE.
In experiment [26] the target is human zcytor17 and OSMRbeta co-expressed on transfected cells (human). The experiment in a line: flow cytometry; no ligand (0.00 µg/mL, background) on BAF3 cells with zcytor17 + OSMRbeta, SA-PE.
In experiment [27] the target is human zcytor17 receptor, full length, on transfected cells (human). The experiment is described as follows: flow cytometry; biotinylated zcytor17L at 100.0 ng/mL on BAF3 cells with zcytor17 alone, SA-PE.
Experiment [28] shares this target. The experiment is described as follows: flow cytometry; no ligand (0.0 µg/mL, background) on BHK cells with zcytor17 alone, SA-PE.
Experiment [29] concerns the target human OSMRbeta, full length, on transfected cells (human). The experiment in a line: flow cytometry; biotinylated zcytor17L at 10.0 µg/mL on BAF3 cells with OSMRbeta alone, SA-PE.
The target is the same in experiment [30]. The experiment in a line: flow cytometry; biotinylated zcytor17L at 0.37 µg/mL on BAF3 cells with OSMRbeta alone, SA-PE.
Experiment [31] addresses human zcytor17 and OSMRbeta co-expressed on transfected cells (human). The experiment in a line: flow cytometry; biotinylated zcytor17L at 0.100 µg/mL on BHK cells with zcytor17 + OSMRbeta, SA-PE.
The target of experiment [32] is human zcytor17 receptor, full length, on transfected cells (human). The experiment in a line: flow cytometry; biotinylated zcytor17L at 2.0 µg/mL on BHK cells with zcytor17 alone, SA-PE.
Experiment [33] has as its target human zcytor17 and OSMRbeta co-expressed on transfected cells (human). The experiment is described as follows: flow cytometry; no ligand (0.0 µg/mL, background) on BHK cells with zcytor17 + OSMRbeta, SA-PE.
Experiment [34] deals with human zcytor17 receptor, full length, on transfected cells (human). The experiment is described as follows: flow cytometry; biotinylated zcytor17L at 1.0 ng/mL on BAF3 cells with zcytor17 alone, SA-PE.
The target in experiment [35] is human zcytor17 and OSMRbeta co-expressed on transfected cells (human). The experiment is described as follows: flow cytometry; biotinylated zcytor17L at 2.0 µg/mL on BHK cells with zcytor17 + OSMRbeta, SA-PE.
Experiment [36] has the same target. The experiment in a line: flow cytometry; biotinylated zcytor17L at 0.12 µg/mL on BAF3 cells with zcytor17 + OSMRbeta, SA-PE.
The target in experiment [37] is human OSMRbeta, full length, on transfected cells (human). The experiment is described as follows: flow cytometry; biotinylated zcytor17L at 0.12 µg/mL on BAF3 cells with OSMRbeta alone, SA-PE.
The target is the same in experiment [38]. The experiment is described as follows: flow cytometry; biotinylated zcytor17L at 2.0 µg/mL on BHK cells with OSMRbeta alone, SA-PE.

In experiment [1], “human zcytor17lig (untagged, in conditioned media) (ligand)” came in with a proliferation of BaF3/zcytor17/OSMRbeta cells, Alamar Blue (activated CCRF-CEM and CCRF-HSB2 conditioned media) (fold over background) of 10; a proliferation of BaF3/zcytor17/OSMRbeta cells, Alamar Blue (activated CD3+ selected human cell conditioned media) (fold over background) of 15. Further, in experiment [2], the proliferation of BaF3/zcytor17/WSX-1/OSMRbeta cells, Alamar Blue (activated CCRF-CEM and CCRF-HSB2 conditioned media) (fold over background) worked out at 10; the proliferation of BaF3/zcytor17/WSX-1/OSMRbeta cells, Alamar Blue (activated CD3+ selected human cell conditioned media) (fold over background) is 15.

B1: biotinylated human zcytor17 ligand (ligand)
chain: LPVRLLRPSDDVQKIVEELQSLSKMLLKDVEEEKGVLVSQNYTLPCLSPDAQPPNNIHSPAIRAYLKTIRQLDNKSVIDEIIEHLDKLIFQDAPETNISVPTDTHECKRFILTISQQFSECMDLALKSLTSGAQQATT
modifications: biotin
As for B1, the mean fluorescent intensity (MFI) was 508 in experiment [3]; 14 in experiment [4]; 39 in [5]; 14 in experiment [6]; 244 in [7]; 1600 in [8]. Besides, the mean fluorescent intensity (MFI) in [9] stood at 7; in [10] it was 5; in experiment [11] it was 247; in experiment [12], 328; in [13] it was 17; in [14], 0. Besides, the mean fluorescent intensity (MFI) turned out to be 53 in [15]; 5 in experiment [16]; 489 in experiment [17]; 15 in experiment [18]; 16 in experiment [19]; 5 in [20]. The mean fluorescent intensity (MFI) in experiment [21] was determined as 531; in experiment [22], 441; in experiment [23], 11; in experiment [24], 15; in [25], 72; in experiment [26] it was 7. Besides, the mean fluorescent intensity (MFI) in [27] came to 347; in [28], 15; in [29], 6; in [30] it was 5; in experiment [31], 2130; in experiment [32] it was 3030. The mean fluorescent intensity (MFI) in experiment [33] stood at 13; in experiment [34], 17; in experiment [35], 3780; in [36] it was 364; in experiment [37], 5; in experiment [38], 13.
